Experimental findings from patent US20240279318A1 (NANJING LEGEND BIOTECH, published 2024) are described below.

Assay [1] addresses T1, AFP158/HLA-A*02:01 complex (human).
T1 construct: flowed as analyte in SPR
Nature of the assay: SPR, crude scFv captured, pMHC analyte.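 Note: complex injected at several concentrations over the chip, association phase then running buffer for dissociation, KD derived from on- and off-rates computed from both curves.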 Background: Surface plasmon resonance follows binding to a sensor surface in real time, without labels.
Experimental: The experiment was carried out as follows. The crude scFv protein were captured onto the sensorchip. Different concentrations (320, 160, 40 nM) of AFP158/HLA-A*02:01 complex flowed over the sensorchip surface, and were allowed to bind the antibody fragment for 100 s followed by injection of the running buffer to allow dissociation of the complex. On-rate (kd) and off-rate (kd) were calculated based on association and dissociation curve, and were used to estimate the equilibrium dissociation constant (KD).
The crude scFv muteins were then subjected to SPR affinity measurement by the method mentioned above.

In assay [2] the target is T2, AFP158/HLA-A*02:01 complex (human).
T2 construct: biotinylated on the BSP by BirA for ELISA and panning; also called biotinylated AFP158/HLA-A*02:01 complex; Bio-AFP158
Nature of the assay: SPR, crude scFv captured.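 Note: Peptide–MHC complex flowed at several concentrations over sensorchip-captured scFv, Kd derived from on- and off-rates obtained from the association and dissociation curves.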

For assay [3], the target named is T2, AFP158/HLA-A*02:01 complex. Nature of the assay: SPR; vs AS170036 VL1VH1.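 Note: crude scFv captured on sensor chip, peptide–HLA complex flowed over at several concentrations, KD estimated from association and dissociation kinetic rates.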

B1: AS170036 VL1VH1-57M98I108S (scFv)
scFv: QSALTQPRSVSGSPGQSVTISCAGTSSDVGSENYVSWYQQHPGKAPKLMIYQVNKRASGVPDRFSGSKSGNTASLTISGLQAEDEADYYCASYRSSDINIVFGGGTKLTVLGGGGSGGGGSGGGGSEVQLVESGGGLVQPGGSLRLSCAASGFTFSSYAMSWVRQAPGKGLEWVSTINSGTGMPYYADSVKGRFTISRDNSKNTLYLQMNSLRAEDTAVYYCAKNFFDGSWFLSPPAMDYWGQGTLVTVSSHHHHHH
notes: also called 81-AS170036 VL1VH1-57M98I108S
On to B1, for which, in assay [1], binding was characterised by a dissociation constant (Kd) of 21 nM; the dissociation rate constant (koff) (commonly the rate constant with which the complex falls apart) is 0.0035 s⁻¹; the on-rate constant (kon) – broadly, a measure of how fast the partners come together – was 170000 M⁻¹ s⁻¹.

B2: AS170036 VL1VH1 HG56A (scFv)
scFv: QSALTQPRSVSGSPGQSVTISCAGTSSDVGSENYVSWYQQHPGKAPKLMIYQVNKRASGVPDRFSGSKSGNTASLTISGLQAEDEADYYCASYRSSDHNIVFGGGTKLTVLGGGGSGGGGSGGGGSEVQLVESGGGLVQPGGSLRLSCAASGFTFSSYAMSWVRQAPGKGLEWVSTINSGTASPYYADSVKGRFTISRDNSKNTLYLQMNSLRAEDTAVYYCAKNFFDGSWFLGPPAMDYWGQGTLVTVSSHHHHHH
As to B2, in assay [2], the Kd – broadly, a measure of binding affinity in units of concentration – is 160 nM. The molecule further showed an Affinity increase in assay [3] of 1.4 fold.

B3: AS170036 VL1VH1 HD102P (scFv)
scFv: QSALTQPRSVSGSPGQSVTISCAGTSSDVGSENYVSWYQQHPGKAPKLMIYQVNKRASGVPDRFSGSKSGNTASLTISGLQAEDEADYYCASYRSSDHNIVFGGGTKLTVLGGGGSGGGGSGGGGSEVQLVESGGGLVQPGGSLRLSCAASGFTFSSYAMSWVRQAPGKGLEWVSTINSGTGSPYYADSVKGRFTISRDNSKNTLYLQMNSLRAEDTAVYYCAKNFFPGSWFLGPPAMDYWGQGTLVTVSSHHHHHH
B3: binding in assay [2] was put at a Kd of 880 nM. This molecule came in with an Affinity increase in assay [3] of 0.3 fold.

B4: AS170036 VL1VH1 HD102I (scFv)
scFv: QSALTQPRSVSGSPGQSVTISCAGTSSDVGSENYVSWYQQHPGKAPKLMIYQVNKRASGVPDRFSGSKSGNTASLTISGLQAEDEADYYCASYRSSDHNIVFGGGTKLTVLGGGGSGGGGSGGGGSEVQLVESGGGLVQPGGSLRLSCAASGFTFSSYAMSWVRQAPGKGLEWVSTINSGTGSPYYADSVKGRFTISRDNSKNTLYLQMNSLRAEDTAVYYCAKNFFIGSWFLGPPAMDYWGQGTLVTVSSHHHHHH
B4: binding in assay [2] was characterised by a dissociation constant (Kd) of 1900 nM. Also, the Affinity increase in assay [3] is 0.1 fold.

B5: AS170036 VL1VH1 HD102V (scFv)
scFv: QSALTQPRSVSGSPGQSVTISCAGTSSDVGSENYVSWYQQHPGKAPKLMIYQVNKRASGVPDRFSGSKSGNTASLTISGLQAEDEADYYCASYRSSDHNIVFGGGTKLTVLGGGGSGGGGSGGGGSEVQLVESGGGLVQPGGSLRLSCAASGFTFSSYAMSWVRQAPGKGLEWVSTINSGTGSPYYADSVKGRFTISRDNSKNTLYLQMNSLRAEDTAVYYCAKNFFVGSWFLGPPAMDYWGQGTLVTVSSHHHHHH
Take B5: the dissociation constant (Kd) in assay [2] came to 1800 nM. This molecule came in with an Affinity increase in assay [3] of 0.1 fold.

B6: AS170036 VL1VH1 HD102W (scFv)
scFv: QSALTQPRSVSGSPGQSVTISCAGTSSDVGSENYVSWYQQHPGKAPKLMIYQVNKRASGVPDRFSGSKSGNTASLTISGLQAEDEADYYCASYRSSDHNIVFGGGTKLTVLGGGGSGGGGSGGGGSEVQLVESGGGLVQPGGSLRLSCAASGFTFSSYAMSWVRQAPGKGLEWVSTINSGTGSPYYADSVKGRFTISRDNSKNTLYLQMNSLRAEDTAVYYCAKNFFWGSWFLGPPAMDYWGQGTLVTVSSHHHHHH
B6 showed a Kd in assay [2] of 2200 nM. The molecule further returned an Affinity increase in assay [3] of 0.1 fold.

B7: AS170036 VL1VH1 HD102S (scFv)
scFv: QSALTQPRSVSGSPGQSVTISCAGTSSDVGSENYVSWYQQHPGKAPKLMIYQVNKRASGVPDRFSGSKSGNTASLTISGLQAEDEADYYCASYRSSDHNIVFGGGTKLTVLGGGGSGGGGSGGGGSEVQLVESGGGLVQPGGSLRLSCAASGFTFSSYAMSWVRQAPGKGLEWVSTINSGTGSPYYADSVKGRFTISRDNSKNTLYLQMNSLRAEDTAVYYCAKNFFSGSWFLGPPAMDYWGQGTLVTVSSHHHHHH
B7: the equilibrium dissociation constant (Kd) in assay [2] amounted to 520 nM. Besides, the Affinity increase in assay [3] came out at 0.4 fold.

B8: AS170036 VL1VH1 HD102M (scFv)
scFv: QSALTQPRSVSGSPGQSVTISCAGTSSDVGSENYVSWYQQHPGKAPKLMIYQVNKRASGVPDRFSGSKSGNTASLTISGLQAEDEADYYCASYRSSDHNIVFGGGTKLTVLGGGGSGGGGSGGGGSEVQLVESGGGLVQPGGSLRLSCAASGFTFSSYAMSWVRQAPGKGLEWVSTINSGTGSPYYADSVKGRFTISRDNSKNTLYLQMNSLRAEDTAVYYCAKNFFMGSWFLGPPAMDYWGQGTLVTVSSHHHHHH
As for B8, in assay [2], the Kd is 840 nM. Moreover, in assay [3], the Affinity increase turned out to be 0.3 fold.

B9: AS170036 VL1VH1 HD102N (scFv)
scFv: QSALTQPRSVSGSPGQSVTISCAGTSSDVGSENYVSWYQQHPGKAPKLMIYQVNKRASGVPDRFSGSKSGNTASLTISGLQAEDEADYYCASYRSSDHNIVFGGGTKLTVLGGGGSGGGGSGGGGSEVQLVESGGGLVQPGGSLRLSCAASGFTFSSYAMSWVRQAPGKGLEWVSTINSGTGSPYYADSVKGRFTISRDNSKNTLYLQMNSLRAEDTAVYYCAKNFFNGSWFLGPPAMDYWGQGTLVTVSSHHHHHH
B9 returned a dissociation constant Kd in assay [2] of 2500 nM. Further, in assay [3], the Affinity increase came out at 0.1 fold.

B10: AS170036 VL1VH1 HD102A (scFv)
scFv: QSALTQPRSVSGSPGQSVTISCAGTSSDVGSENYVSWYQQHPGKAPKLMIYQVNKRASGVPDRFSGSKSGNTASLTISGLQAEDEADYYCASYRSSDHNIVFGGGTKLTVLGGGGSGGGGSGGGGSEVQLVESGGGLVQPGGSLRLSCAASGFTFSSYAMSWVRQAPGKGLEWVSTINSGTGSPYYADSVKGRFTISRDNSKNTLYLQMNSLRAEDTAVYYCAKNFFAGSWFLGPPAMDYWGQGTLVTVSSHHHHHH
Molecule B10 came in with a Kd in assay [2] of 590 nM. The Affinity increase in assay [3] stood at 0.4 fold.

B11: AS170036 VL1VH1 HF101D (scFv)
scFv: QSALTQPRSVSGSPGQSVTISCAGTSSDVGSENYVSWYQQHPGKAPKLMIYQVNKRASGVPDRFSGSKSGNTASLTISGLQAEDEADYYCASYRSSDHNIVFGGGTKLTVLGGGGSGGGGSGGGGSEVQLVESGGGLVQPGGSLRLSCAASGFTFSSYAMSWVRQAPGKGLEWVSTINSGTGSPYYADSVKGRFTISRDNSKNTLYLQMNSLRAEDTAVYYCAKNFDDGSWFLGPPAMDYWGQGTLVTVSSHHHHHH
Consider B11, for which binding in assay [2] was put at a Kd of 1400 nM. The Affinity increase in assay [3] is 0.2 fold.

B12: AS170036 VL1VH1 HD102T (scFv)
scFv: QSALTQPRSVSGSPGQSVTISCAGTSSDVGSENYVSWYQQHPGKAPKLMIYQVNKRASGVPDRFSGSKSGNTASLTISGLQAEDEADYYCASYRSSDHNIVFGGGTKLTVLGGGGSGGGGSGGGGSEVQLVESGGGLVQPGGSLRLSCAASGFTFSSYAMSWVRQAPGKGLEWVSTINSGTGSPYYADSVKGRFTISRDNSKNTLYLQMNSLRAEDTAVYYCAKNFFTGSWFLGPPAMDYWGQGTLVTVSSHHHHHH
For B12, in assay [2], the Kd was found to be 1800 nM. The molecule also gave an Affinity increase in assay [3] of 0.1 fold.

B13: AS170036 VL1VH1 HD102L (scFv)
scFv: QSALTQPRSVSGSPGQSVTISCAGTSSDVGSENYVSWYQQHPGKAPKLMIYQVNKRASGVPDRFSGSKSGNTASLTISGLQAEDEADYYCASYRSSDHNIVFGGGTKLTVLGGGGSGGGGSGGGGSEVQLVESGGGLVQPGGSLRLSCAASGFTFSSYAMSWVRQAPGKGLEWVSTINSGTGSPYYADSVKGRFTISRDNSKNTLYLQMNSLRAEDTAVYYCAKNFFLGSWFLGPPAMDYWGQGTLVTVSSHHHHHH
B13 displayed a Kd in assay [2] of 1700 nM. The same molecule came in with an Affinity increase in assay [3] of 0.1 fold.

B14: AS170036 VL1VH1 HD102E (scFv)
scFv: QSALTQPRSVSGSPGQSVTISCAGTSSDVGSENYVSWYQQHPGKAPKLMIYQVNKRASGVPDRFSGSKSGNTASLTISGLQAEDEADYYCASYRSSDHNIVFGGGTKLTVLGGGGSGGGGSGGGGSEVQLVESGGGLVQPGGSLRLSCAASGFTFSSYAMSWVRQAPGKGLEWVSTINSGTGSPYYADSVKGRFTISRDNSKNTLYLQMNSLRAEDTAVYYCAKNFFEGSWFLGPPAMDYWGQGTLVTVSSHHHHHH
Molecule B14 registered an equilibrium dissociation constant (Kd) in assay [2] of 190 nM. In assay [3], this molecule returned an Affinity increase of 1.2 fold.

B15: AS170036 VL1VH1 HD102Q (scFv)
scFv: QSALTQPRSVSGSPGQSVTISCAGTSSDVGSENYVSWYQQHPGKAPKLMIYQVNKRASGVPDRFSGSKSGNTASLTISGLQAEDEADYYCASYRSSDHNIVFGGGTKLTVLGGGGSGGGGSGGGGSEVQLVESGGGLVQPGGSLRLSCAASGFTFSSYAMSWVRQAPGKGLEWVSTINSGTGSPYYADSVKGRFTISRDNSKNTLYLQMNSLRAEDTAVYYCAKNFFQGSWFLGPPAMDYWGQGTLVTVSSHHHHHH
B15 returned a Kd in assay [2] of 950 nM. In assay [3], this molecule registered an Affinity increase of 0.2 fold.

B16: AS170036 VL1VH1 HD102G (scFv)
scFv: QSALTQPRSVSGSPGQSVTISCAGTSSDVGSENYVSWYQQHPGKAPKLMIYQVNKRASGVPDRFSGSKSGNTASLTISGLQAEDEADYYCASYRSSDHNIVFGGGTKLTVLGGGGSGGGGSGGGGSEVQLVESGGGLVQPGGSLRLSCAASGFTFSSYAMSWVRQAPGKGLEWVSTINSGTGSPYYADSVKGRFTISRDNSKNTLYLQMNSLRAEDTAVYYCAKNFFGGSWFLGPPAMDYWGQGTLVTVSSHHHHHH
Take B16: the affinity in assay [2], expressed as Kd, was 2500 nM. In assay [3], this molecule had an Affinity increase of 0.1 fold.

B17: AS170036 VL1VH1 HF101H (scFv)
scFv: QSALTQPRSVSGSPGQSVTISCAGTSSDVGSENYVSWYQQHPGKAPKLMIYQVNKRASGVPDRFSGSKSGNTASLTISGLQAEDEADYYCASYRSSDHNIVFGGGTKLTVLGGGGSGGGGSGGGGSEVQLVESGGGLVQPGGSLRLSCAASGFTFSSYAMSWVRQAPGKGLEWVSTINSGTGSPYYADSVKGRFTISRDNSKNTLYLQMNSLRAEDTAVYYCAKNFHDGSWFLGPPAMDYWGQGTLVTVSSHHHHHH
B17 gave a Kd in assay [2] of 830 nM. Further, the Affinity increase in assay [3] worked out at 0.3 fold.
